Laboratory results published in US20240262884A1 (University of Pennsylvania, published 2024).

Experiments:
[1] = target: T1, human GFRα1 (R&D Systems, Fc-fusion protein) (human, UniProt P56159 25-429, limits assumed); test: ELISA with soluble Fab, HRP-anti human Fab detection (FIG. 3)
T1 construct: not shown: Fc part of the bought fusion protein
T1 sequence (looked up): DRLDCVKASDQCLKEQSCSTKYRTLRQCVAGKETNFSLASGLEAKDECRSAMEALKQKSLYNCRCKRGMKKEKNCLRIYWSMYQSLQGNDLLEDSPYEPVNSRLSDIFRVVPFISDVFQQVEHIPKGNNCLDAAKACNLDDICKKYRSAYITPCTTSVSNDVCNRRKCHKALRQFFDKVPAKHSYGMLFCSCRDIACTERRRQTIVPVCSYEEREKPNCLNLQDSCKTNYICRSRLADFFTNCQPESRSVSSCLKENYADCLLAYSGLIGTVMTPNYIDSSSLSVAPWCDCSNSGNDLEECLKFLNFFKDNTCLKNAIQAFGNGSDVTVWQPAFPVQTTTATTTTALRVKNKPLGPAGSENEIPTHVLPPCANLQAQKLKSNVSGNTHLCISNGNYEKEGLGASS

[2] = target: T2, human GFRα2 (R&D Systems, Fc-fusion protein) (human, UniProt O00451 22-441, limits assumed); test: as above
T2 construct: not shown: Fc part of the bought fusion protein
T2 sequence (looked up): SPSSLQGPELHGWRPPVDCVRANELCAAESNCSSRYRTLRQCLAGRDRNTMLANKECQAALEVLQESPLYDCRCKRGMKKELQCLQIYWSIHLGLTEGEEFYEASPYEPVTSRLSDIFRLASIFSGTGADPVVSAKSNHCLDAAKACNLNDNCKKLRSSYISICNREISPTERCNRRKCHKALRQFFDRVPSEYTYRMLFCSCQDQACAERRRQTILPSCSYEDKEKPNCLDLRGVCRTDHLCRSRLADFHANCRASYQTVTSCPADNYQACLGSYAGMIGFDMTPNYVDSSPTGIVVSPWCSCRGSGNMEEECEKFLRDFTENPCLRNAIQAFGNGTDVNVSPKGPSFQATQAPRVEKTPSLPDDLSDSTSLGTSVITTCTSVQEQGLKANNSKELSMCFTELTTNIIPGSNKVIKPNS

[3] = target: T3, human GFRα3 (R&D Systems, Fc-fusion protein) (human, UniProt O60609 32-382, limits assumed); test: as above
T3 construct: not shown: Fc part of the bought fusion protein
T3 sequence (looked up): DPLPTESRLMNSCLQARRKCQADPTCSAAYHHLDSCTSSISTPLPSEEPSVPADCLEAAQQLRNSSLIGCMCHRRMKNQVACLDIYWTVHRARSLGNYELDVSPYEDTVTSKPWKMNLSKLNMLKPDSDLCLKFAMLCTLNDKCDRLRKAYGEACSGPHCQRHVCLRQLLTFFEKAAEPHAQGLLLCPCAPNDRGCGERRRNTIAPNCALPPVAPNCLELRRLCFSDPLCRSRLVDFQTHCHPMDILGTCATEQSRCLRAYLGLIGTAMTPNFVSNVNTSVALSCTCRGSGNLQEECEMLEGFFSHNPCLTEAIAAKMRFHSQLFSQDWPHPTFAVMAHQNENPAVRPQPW

[4] = target: T4, GFRα4 isoform a human Fc bivalent fusion protein (Asn24-Ser245, Factor Xa site, human IgG1 Fc fragment, … (human)); test: ELISA, soluble recombinant human/rabbit chimeric Fab, HRP-anti human Fab detection (FIG. 3)
T4 construct: also called GFRα4a; GFRalpha4 isoform a
T4 chain: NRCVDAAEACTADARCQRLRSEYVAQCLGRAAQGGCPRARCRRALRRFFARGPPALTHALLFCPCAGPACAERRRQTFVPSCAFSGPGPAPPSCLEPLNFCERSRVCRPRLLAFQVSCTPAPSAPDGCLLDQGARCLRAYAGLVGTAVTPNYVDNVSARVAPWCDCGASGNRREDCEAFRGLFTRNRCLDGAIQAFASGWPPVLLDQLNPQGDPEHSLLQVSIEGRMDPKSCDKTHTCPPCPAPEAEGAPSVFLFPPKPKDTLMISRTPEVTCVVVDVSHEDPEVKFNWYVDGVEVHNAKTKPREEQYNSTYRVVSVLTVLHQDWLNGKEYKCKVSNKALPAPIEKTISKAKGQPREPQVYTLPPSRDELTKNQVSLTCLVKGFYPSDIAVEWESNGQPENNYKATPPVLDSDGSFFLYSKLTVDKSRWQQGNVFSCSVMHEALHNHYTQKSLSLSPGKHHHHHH

[5] = target: T5, GFRα4 isoform b human Fc bivalent fusion protein (Asn24-Val274, TEV site and linker, human IgG1 Fc fragment); … (human); test: as above
T5 construct: also called GFRα4b; GFRalpha4 isoform b

Binder	binding result [1]	binding result [2]	binding result [3]	binding result [4]	binding result [5]
P4-10 recombinant human/rabbit chimeric Fab (Fab, V domains shown, Both formats are written under this one molecule; also called Fab P4-10; P4-10 phage antibody) VH: QSVKESEGGLFKPTDTLTLTCTVSGFSLSRHALTWVRQAPGNGLEWIGAIDNAGTTYYASWAKSRSTITRNTDLHTVTLKMTSLTASDTATYFCARVFYDINSGYYLDGMDLWGPGTLVTVSS VL: QFVLTQSPSVSAALGASAKLTCTLSSAHKTYTIDWYQQQQGEAPRYLMQVKSDGSYTKGTGVPDRFSGSSSGADRYLIIPSVQADDEAGYVCGADDNGGYVFGGGTQLTVT	no binding	no binding	no binding	binds	binds
P4-6 recombinant human/rabbit chimeric Fab (Fab, V domains shown, Both formats are written under this one molecule; also called Fab P4-6; P4-6 phage antibody) VH: EQLKESGGGLFKPTDTLTLTCTVSGFSLSYYGVNWVRQAPGNGLEWIGTIGGSGDTYYASWAKSRSTIIRNTNENTVTLKMTSLTAADTATYFCVRYANIGYEYFNVWGPGTLVTVSS VL: QFVLTQSPSASAALGASAKLTCTLSSAHKTYTIDWYQQQKGKAPRYLIQVKSDGTYTKATGVPDRFSGSSSGADRYLIIPSVQADDEADYYCGTDYTGGYVFGGGTQLTVT	no binding	no binding	no binding	binds	binds
